Experimental data from article PMC6409784, “Chlorambucil Conjugated Ugi Dendrimers with PAMAM-NH2 Core and Evaluation of Their Anticancer Activity” (Pharmaceutics, 2019).
Like-named read-outs stand apart in the source and are kept apart here.

What was measured:
Solubility of dendrimers = conditions: at 20 mg/mL
NIH3T3 fibroblasts [1] = test: CV viability assay on non-cancerous fibroblasts; assay type: cell-based, mouse; conditions: at the IC50 determined for PC-3 (7.3 µM), CV and MTT, 72 h
PC-3 cells [2] = conditions: read-out: IC50, CV assay, PC-3, 72 h
PC-3 cells [3] = conditions: read-out: IC50, MTT assay, PC-3, 72 h
NIH3T3 fibroblasts [4] = conditions: read-out: IC50 NIH3T3, MTT; NIH3T3 mouse fibroblasts, 72 h, MTT assay
[5] = system: PC-3 prostate cancer cell line; test: Viability by CV and MTT assays (fast screening / dose response); assay type: cell-based, human; conditions: 20 µM free chlorambucil, 72 h
PC-3 cells [6] = test: cells; conditions: Homo sapiens, PC-3, 72 h, read-out: IC50, CV assay, PC-3
PC-3 cells [7] = test: cells; conditions: Homo sapiens, PC-3, 72 h, read-out: IC50, MTT assay, PC-3

CC(C)C(C(=O)NCCCC(=O)O)N(CCNC(=O)CCN(CCC(=O)NCCN(C(=O)CCCC[C@@H]1SC[C@@H]2NC(=O)N[C@@H]21)C(C(=O)NCCCC(=O)O)C(C)C)CCN(CCC(=O)NCCN(C(=O)CCCC[C@@H]1SC[C@@H]2NC(=O)N[C@@H]21)C(C(=O)NCCCC(=O)O)C(C)C)CCC(=O)NCCN(C(=O)CCCc1ccc(N(CCCl)CCCl)cc1)C(C(=O)NCCCC(=O)O)C(C)C)C(=O)CCCC[C@@H]1SC[C@@H]2NC(=O)N[C@@H]21 (some centres unmarked) [Dendrimer 5b]
Solubility (Solubility of dendrimers): High

COC(=O)CCCNC(=O)C(C(C)C)N(CCNC(=O)CCN(CCC(=O)NCCN(C(=O)CCCc1ccc(N(CCCl)CCCl)cc1)C(C(=O)NCCCC(=O)OC)C(C)C)CCN(CCC(=O)NCCN(C(=O)CCCc1ccc(N(CCCl)CCCl)cc1)C(C(=O)NCCCC(=O)OC)C(C)C)CCC(=O)NCCN(C(=O)CCCc1ccc(N(CCCl)CCCl)cc1)C(C(=O)NCCCC(=O)OC)C(C)C)C(=O)CCCc1ccc(N(CCCl)CCCl)cc1 (centres unmarked) [Dendrimer 2a]
Solubility (Solubility of dendrimers): Low

CC(C)C(C(=O)NCCOCCOCCN)N(CCNC(=O)CCN(CCC(=O)NCCN(C(=O)CCCc1ccc(N(CCCl)CCCl)cc1)C(C(=O)NCCOCCOCCN)C(C)C)CCN(CCC(=O)NCCN(C(=O)CCCc1ccc(N(CCCl)CCCl)cc1)C(C(=O)NCCOCCOCCN)C(C)C)CCC(=O)NCCN(C(=O)CCCc1ccc(N(CCCl)CCCl)cc1)C(C(=O)NCCOCCOCCN)C(C)C)C(=O)CCCc1ccc(N(CCCl)CCCl)cc1 (centres unmarked) [Dendrimer 1b]
effect on NIH3T3 cell growth (NIH3T3 fibroblasts [1]): did not affect NIH3T3 cell growth at all
IC50 (PC-3 cells [2]): 3.65 ± 0.56 µM
IC50 (PC-3 cells [3]): 7.29 ± 1.18 µM
IC50 (NIH3T3 fibroblasts [4]): 74.4 ± 2.31 µM
Solubility (Solubility of dendrimers): High

COC(=O)CCCNC(=O)C(C(C)C)N(CCNC(=O)CCN(CCC(=O)NCCN(C(=O)CCCc1ccc(N(CCCl)CCCl)cc1)C(C(=O)NCCCC(=O)OC)C(C)C)CCN(CCC(=O)NCCN(C(=O)CCCc1ccc(N(CCCl)CCCl)cc1)C(C(=O)NCCCC(=O)OC)C(C)C)CCC(=O)NCCN(C(=O)CCCc1ccc(N(CCCl)CCCl)cc1)C(C(=O)NCCCC(=O)OC)C(C)C)C(=O)CCCC[C@@H]1SC[C@@H]2NC(=O)N[C@@H]21 (some centres unmarked) [Dendrimer 3a]
Solubility (Solubility of dendrimers): Low

CC(C)C(C(=O)NCCCC(=O)O)N(CCNC(=O)CCN(CCC(=O)NCCN(C(=O)CCCc1ccc(N(CCCl)CCCl)cc1)C(C(=O)NCCCC(=O)O)C(C)C)CCN(CCC(=O)NCCN(C(=O)CCCc1ccc(N(CCCl)CCCl)cc1)C(C(=O)NCCCC(=O)O)C(C)C)CCC(=O)NCCN(C(=O)CCCc1ccc(N(CCCl)CCCl)cc1)C(C(=O)NCCCC(=O)O)C(C)C)C(=O)CCCC[C@@H]1SC[C@@H]2NC(=O)N[C@@H]21 (some centres unmarked) [Dendrimer 3b]
Solubility (Solubility of dendrimers): High

COC(=O)CCCNC(=O)C(C(C)C)N(CCNC(=O)CCN(CCC(=O)NCCN(C(=O)CCCC[C@@H]1SC[C@@H]2NC(=O)N[C@@H]21)C(C(=O)NCCCC(=O)OC)C(C)C)CCN(CCC(=O)NCCN(C(=O)CCCC[C@@H]1SC[C@@H]2NC(=O)N[C@@H]21)C(C(=O)NCCCC(=O)OC)C(C)C)CCC(=O)NCCN(C(=O)CCCc1ccc(N(CCCl)CCCl)cc1)C(C(=O)NCCCC(=O)OC)C(C)C)C(=O)CCCC[C@@H]1SC[C@@H]2NC(=O)N[C@@H]21 (some centres unmarked) [Dendrimer 5a]
Solubility (Solubility of dendrimers): Low

CC(C)C(C(=O)NCCOCCOCCNC(=O)OC(C)(C)C)N(CCNC(=O)CCN(CCC(=O)NCCN(C(=O)CCCc1ccc(N(CCCl)CCCl)cc1)C(C(=O)NCCOCCOCCNC(=O)OC(C)(C)C)C(C)C)CCN(CCC(=O)NCCN(C(=O)CCCc1ccc(N(CCCl)CCCl)cc1)C(C(=O)NCCOCCOCCNC(=O)OC(C)(C)C)C(C)C)CCC(=O)NCCN(C(=O)CCCc1ccc(N(CCCl)CCCl)cc1)C(C(=O)NCCOCCOCCNC(=O)OC(C)(C)C)C(C)C)C(=O)CCCc1ccc(N(CCCl)CCCl)cc1 (centres unmarked) [Dendrimer 1a]
Solubility (Solubility of dendrimers): Low

O=C(O)CCCc1ccc(N(CCCl)CCCl)cc1 [chlorambucil]
activity of free agent on PC-3 cells [5]: almost no activity
IC50 (PC-3 cells [6]): > 100 µM
IC50 (PC-3 cells [7]): > 100 µM
